Assay results as given in IntAct's records for PubMed 25313826.

B1: Chromatin assembly factor 1 subunit A (Schizosaccharomyces pombe (strain ATCC 38366 / 972)), Q1MTN9 (parent)
chain: MNSESVDSDVAASTSNKGNELCSSSTDITSLSVSSPNESVIHSSHSASEADEYVCKLSYEGNRKKRIYNGSAEAGKEKKLQKQRAQEERIRQKEAERLKREKERQQREQEKKLREQEKIAAKKMKELEKLEKERIRLQEQQRRKEERDQKLREKEEAQRLRQEQILNKERQQLKLNNFFTKGVEKRIAPNENFVADKTDELNEFEKEFRPFFIKHQMSLSKYPSPNESDSFLDEVLSTSKSYPLKLNDIFTPSDAVSSANSLGVSNRNSENEVRQLMSAYQDPSVSKPQEILSCLSQIPIKFIFFYQDVRPPYFGSYTKTHSHGSNVLLNPWLEDEDIDYTYDSEAEWVADEEDDGEDLESEDEEVDNSDDIVEDGDNAFVDDEDDDKDSVNASNTHRSSGPLEVIVEGPVWDSKFLPDFNCLSLIEPISSFSASTYLQIDPKEDLWASQDTAPASSGMTIGPTSSLSDDLQVRFPSEDIPKFIEYVRNSHDNKVFLIENLRHMFPYVTKNIISETLGKVAVRKGKSVSDGWIIKENFASLLSS
partner: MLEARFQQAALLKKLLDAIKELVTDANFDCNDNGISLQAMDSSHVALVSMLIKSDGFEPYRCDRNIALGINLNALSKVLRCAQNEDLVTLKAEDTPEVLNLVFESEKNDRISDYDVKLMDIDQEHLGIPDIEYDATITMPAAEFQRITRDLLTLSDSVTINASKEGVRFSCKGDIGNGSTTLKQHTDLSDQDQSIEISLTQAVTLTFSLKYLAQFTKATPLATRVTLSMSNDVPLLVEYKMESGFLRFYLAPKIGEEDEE

Variants of: B1
Conditions: with pcna_schpo pcn1, Q03392

Row | effect of a mutation on the interaction | Variant
1 | disrupting interaction strength | Q172A;L175A;F178A;F179A
